Reference: the supplement of paper PMC12042874
± gives the uncertainty stated by the source.

Assay: amyloid nucleation score (Sup35N fusion, yeast selection) (log enrichment); library NNK2; higher = more nucleation; inactive = no reads after selection
Method in brief: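 Psi-negative yeast expressed Sup35N fused to peptides of 20 random codons. They were induced 24 hours with 100 μM copper sulfate, grown 7 days at 30°C without adenine and uracil, and their plasmid inserts from input and output were Illumina-sequenced. The nucleation score is the DiMSum log enrichment of output over input reads, centred on the mode score of non-aggregating sequences. Sequences with under 100 input reads were excluded.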

Substance	amyloid nucleation score
VWSSLGRECPSSCIVFLSVE	-0.464 ± 0.78
IRVYFRDEYLKFG	-0.358 ± 0.19
LSSPDVPNIHAALRTRTGWA	-0.328 ± 0.27
WFISGISKLMRHFALKYASM	2.5 ± 0.15
VCRPRTTNIGAWRRFRFLFW	-0.601 ± 0.41
KSCCDGRNYDKIPRVRSSRT	0.206 ± 0.43
SLADS	-0.802 ± 0.63
KLCLGIGCRRQDTQAFGPPL	5.65 ± 0.083
TYIRSVYDAFAC	inactive
IRSNIGNSWNTLIFVYCCYT	6.415 ± 0.049
DDLSMRVVRLRNVTLYHYFG	3.21 ± 0.088
GRFVSVKHYS	inactive
IMCRETRLYMGMFVFDQLPQ	6.46 ± 0.079
VVYDHILVAKFRAFVLGPFL	4.07 ± 0.054
NSTFLCLVGFFCLVFSLRQG	3.77 ± 0.1
VRGAIVQKALDCKSVDKSLE	inactive
YFRVFFFLMSIYTDKN	inactive
LSIAYFSSAWCFYL	6.216 ± 0.038
TECITVVIWVYGAISHRSGT	-0.247 ± 0.27
SCFTLSFKVITLHSRLQFIW	0.181 ± 0.35
LISSSFRSVLRPNWTPLKVC	inactive
DFTVSHI	inactive

Substance	amyloid nucleation score
ILVWANSHVLDVDHRDRGRR	1.9 ± 0.13
VLTVWPYHCAIVEILSGCVL	5.98 ± 0.081
FGLRIKPGEKV	0.783 ± 0.74
HHVGGMTV	0.691 ± 0.8
FLKTKSFMVKMTGVNNQVFL	5.96 ± 0.071
YMSGGVRKGPIAKALNFVRS	-0.854 ± 0.56
FKCNIYYSFRYGSI	7.18 ± 0.026
VSKPQKRFKDEFYSLLSVKF	-0.55 ± 0.76
FVEMYGLWPSFGVKRKVLKV	-0.904 ± 0.53
SPVVKFRLLQSINLTHCY	4.47 ± 0.05
CLPCCGAFNKCANRYQVSEM	-0.249 ± 0.39
DMRLKGLTRVFTGDNRFSLL	-0.064 ± 0.54
KCNVMRQMRFMLPFTVIVVL	0.204 ± 0.31
SRVTYMRATDSMTTVVFWGV	5.31 ± 0.064
IRVTCLLGL	-0.055 ± 0.2
VLSVISLFGHILVMFLERKV	-0.13 ± 0.76
SNGVAWQCNGNSYRIFCDTS	7.522 ± 0.069
RYFRATPKVCRLH	0.175 ± 0.26
AALGTDMSNWVHSRLNQERR	0.433 ± 0.45
GLISDYFSPSCIVYAGVR	inactive
NRPLCSFDTEFDLYEQIHLR	4.38 ± 0.086
VDSYHGYTDRNALSFLCSLV	0.342 ± 0.23

Substance	amyloid nucleation score
AEVGTPESLLEGNIDRERIP	0.42 ± 0.36
GCISVNCHSLLRTHAFRG	1.28 ± 0.1
AVPMMSWSFIVSYVGRNNSM	1.7 ± 0.19
TGNDFSCFPRALEMATWTTV	0.016 ± 1.1
SVFMIYKTVSGGHAYFVVQQ	4.97 ± 0.072
VSISKVFAAFVFLEPANTRI	5.36 ± 0.097
NGWIYAYDLLLERTSQSWKI	-0.472 ± 0.32
VICNLDCLEVEGGILDQ	-1.04 ± 1.1
WRSYDMYSSWSIYVMAMTIS	-1.11 ± 0.53
HCLGRLVASWNPQWEFHRRT	0.103 ± 0.38
LVCGHRPNVAAGTQGDCGRW	1.04 ± 0.32
KWKASVSFFNGHWDGLFANL	5.07 ± 0.056
ELFFCFKRLHGLMGYNDLES	4.13 ± 0.063
LYLTGNF	-0.199 ± 0.76
KSMEGSNVMSRRYNWPWKDS	0.062 ± 0.63
HPLVLWSIELCMMFFNSLTD	-0.565 ± 0.48
YVLELKG	2.75 ± 0.062
SLNNIRLLTHYLDFGVRNLA	3.04 ± 0.092
NALHEIQLDICMRSIEARGY	-1.19 ± 0.39
CSVCYFPEGNLFNGE	inactive
QEALLWTLNTLKKLSGRGST	-1.44 ± 0.55
LHCYCDLDDALTNPPAHHSR	0.605 ± 0.34

Substance	amyloid nucleation score
VKGKE	2.31 ± 0.14
YRNCLPMGGNALS	-0.964 ± 1.1
MGEYFSMALYAPYTWVFMSV	-1.55 ± 1
LRVGSRKVRVWSLVSFCLVV	-0.271 ± 0.42
CWGNGGQKRLFVLFSFAY	0.063 ± 1.1
SEENYGRYLAMEVYNYSQAL	inactive
WLTYRCSVYYFYVEYWKSVY	0.256 ± 0.74
SSPLPQSCERNRVLRTRLGF	0.874 ± 0.45
KLKSDLMNRTVGDLPVRARP	5.105 ± 0.048
MSRNF	4.87 ± 0.076
TSCGCTW	0.092 ± 1.1
GRCTGLLCLALVVIYQ	0.358 ± 0.39
LKISVCQLRLFKLGARTRGW	0.158 ± 0.8
RVSCNRVRVYCWLVWRLIPN	inactive
CYAGFCN	inactive
HVILM	1.65 ± 0.33
ARCDCGFVRGGNCVVQYCLS	7.529 ± 0.04
NVGTRWSGDARNMFSSKGGK	0.83 ± 0.31
YWKPCLVAVGWSTQLRCCPV	-0.324 ± 0.3
